From US20240270826A1 (NATIONAL RESEARCH COUNCIL OF CANADA, published 2024)

How the values were obtained:
[1] = molecular target: Human SARS-CoV-2_Wuhan S (SmT1) (SARS-CoV-2 (Wuhan), UniProt P0DTC2 14-1208); test: tandem SPR, immobilized S, orientation 1: VHH alone
[2] = molecular target: SARS-CoV-2 spike protein S on live virus, Wuhan (strain SARS-CoV-2/Canada/VIDO-01/2020) (SARS-CoV-2 (Wuhan), UniProt P0DTC2 14-1273); test: cell-based or functional assay
[3] = molecular target: Human SARS-CoV-2_Wuhan S (SmT1) (SARS-CoV-2 (Wuhan), UniProt P0DTC2 14-1208); test: flow cytometry SVNA, VHH-Fc vs biotin-S binding to Vero E6 ACE2

B1: NRCoV2-11 VHH (VHH)
VHH: EVQLVSSGGGLVQPGGSLRLSCAASGSSLDSYSVSWFRQAPGKEREWISFISRYYSSTYYTDSVKGRFTTSRDGDQKTVHLQMNSLKPEDTAVYYCAARSRDFSSPFSATDTYTSWGQGTQVTVSS
In the case of B1, the “End 1st inj (RU)” value [1] is reported as 21.8 RU.

B2: NRCoV2-20 VHH-Fc (Fc fusion)
chain: EVQLQQSGGGLVQPGGSLRLSCAASGRTFSNYVVGWFRQAPQAPGKDHEFVAVISGSDTETYYADSVKGRFTISRDNAKNTVYLQMNSLKPEDTAVYYCAADRGMSYYYTRATEYYYWGQGTQVTVSS
notes: bivalent VHH-Fc
B2 was tested, and the “LVNA IC50” value [2] was 11.2 nM, the IC50 [3] was 8.7 nM and the IC99 [3] was 70.3 nM. For the same binder, the Imax % [3] was 66%.

B3: NRCoV2-20 VHH (VHH)
VHH: EVQLQQSGGGLVQPGGSLRLSCAASGRTFSNYVVGWFRQAPQAPGKDHEFVAVISGSDTETYYADSVKGRFTISRDNAKNTVYLQMNSLKPEDTAVYYCAADRGMSYYYTRATEYYYWGQGTQVTVSS
B3 was tested, and the “End 1st inj (RU)” value [1] was 27.1 RU.

B4: NRCoV2-17 VHH-Fc (Fc fusion)
chain: EVQLQQSGGGLVQTGGSLRLSCAAAGSPFSQLAMSWYRQISGKERAWVASISPTGNRSYSKIAKGRFTISRDNAKNTVTLQMTSLKPEDTAAYICQAANVNGGDYWGQGTQVTVSS
notes: bivalent VHH-Fc
B4 was tested, and the “LVNA IC50” value [2] was 2.82 nM, the IC50 [3] was 8.6 nM and the IC99 [3] was 101 nM. The Imax % [3] was 88%.

B5: NRCoV2-17 VHH (VHH)
VHH: EVQLQQSGGGLVQTGGSLRLSCAAAGSPFSQLAMSWYRQISGKERAWVASISPTGNRSYSKIAKGRFTISRDNAKNTVTLQMTSLKPEDTAAYICQAANVNGGDYWGQGTQVTVSS
For B5, the “End 1st inj (RU)” value [1] was 16.7 RU.

B6: NRCoV2-SR01 VHH (VHH)
VHH: EVQLVQSGGGSVQAGGSLRLSCVASGFTFDNYAIGWFRQAPGKEREGVSCISGNGGVTIYADSVKGRFTISRDNAKNLVYLQMNSLKPEDTAVYYCAATGIRSTWSVYGCSRLAGPYDYWGQGTQVTVSS
For B6, the “End 1st inj (RU)” value [1] was 39.4 RU.

B7: NRCoV2-S2F3 VHH (VHH)
VHH: EVQLVQSGGGLVQAGGSLRLSCATSVRILSVPAMGWYRQAPGKEREMVAVITSGGSTNYADSVKGRFTISRDNAKNTVYLQMNSLKLEDTAVYQCNLRDILSQPFWGQGTQVTVSS
For B7, the “End 1st inj (RU)” value [1] was 50 RU.

B8: NRCoV2-SR04 VHH (VHH)
VHH: QVQLVESGGGLVQAGGSLRLSCAASGRTFSSHTVGWYRQAPGKQRDLVAAISMGGNTNYADYADSVKGRFTISRDNAKNTLYLQMNSLKPEDTAVYYCNTAALVGNRLLPMATITWGQGTQVTVSS
With B8 the “End 1st inj (RU)” value [1] was 10.9 RU.

B9: NRCoV2-SR16 VHH (VHH)
VHH: QVQLVQSAGGLVQAGGSLRLSCVVSGTTFSRYHMGWHRQAPGKQRDFVAGISTSGAVTYADSAKGRFTISRDNAKNTVYLEMNSLKLEDTALYYCNTGGWDYRSSTFIMGLNWGQGTQVTVSS
In the case of B9, the “End 1st inj (RU)” value [1] is reported as 37.4 RU.

B10: NRCoV2-MRed04 VHH-Fc (Fc fusion)
chain: EVQLVESGGGLVQPGRSLRLSCAASGNSFSISTMGWFRQAPGKERELVASIWSDTTTSYADSVKGRFTISTDNTRTKVYLQMSSLNPEDTAVYYCAADRGFVVRGQYDYWGQGTQVTVSS
notes: bivalent VHH-Fc
In the case of B10, the “LVNA IC50” value [2] is reported as 9.61 nM, the IC50 [3] is reported as 4.6 nM and the IC99 [3] is reported as 262 nM. It also gave an Imax % [3] of 73%.

B11: NRCoV2-SR13 VHH (VHH)
VHH: EVQLVESGGGLVTTGGSLRLSCATSGSRFGSKHMAWYRQAPGKQRDLVAAISSGGSTHYGSSVKGRFTISRDNAKSTVYLQMNSLNPEDTAVFYCNMGGWDYRSNTYIPGSRSDYWGQGTQVTVSS
In the case of B11, the “End 1st inj (RU)” value [1] is reported as 36.9 RU.

B12: NRCoV2-10 VHH-Fc (Fc fusion)
chain: QLQLQESGGGLVQPGGSLTLSCAASGNTFSRSNMHWYRQAPGAQREWVAAISSRGISTYAYSAKGRFTISRDNAKNTVSLQMNSLKPEDTAVYYCYAADDLGDYWGQGTQVTVSS
notes: bivalent VHH-Fc
B12 was tested, and the “LVNA IC50” value [2] was 1.28 nM, the IC50 [3] was 7.7 nM and the IC99 [3] was 77.3 nM. The Imax % [3] was 91%.

B13: NRCoV2-S2G3 VHH (VHH)
VHH: QVQLVQSGGGSVQAGGSLRLSCAASGSTFGIFLMGWRRQAPGKQRELVAHITSGGATNYADSVKGRFTISRDNAKNTVYLQMNSLEPEDTAVYYCYTTKRDDASVYWGQGTQVTVSS
B13 was tested, and the “End 1st inj (RU)” value [1] was 59 RU.

B14: NRCoV2-12 VHH-Fc (Fc fusion)
chain: EVQLQQSGGGLVQAGGSLRLSCAASGRTFRNYVMGWFRQAPQAPGKDHEFVAAISWGGTEIYYADSVKGRFTISRDNAKNTVYLQMNSLKPEDTAVYYCAADRGLSYYYTRTTEYNYWGQGTQVTVSS
notes: bivalent VHH-Fc
With B14 the “LVNA IC50” value [2] was 2.82 nM, the IC50 [3] was 7.3 nM and the IC99 [3] was 840 nM. The Imax % [3] was 90%.

B15: NRCoV2-14 VHH-Fc (Fc fusion)
chain: EVQLVSSGGGLVQAGGSLRLSCEASGTTFSHYAVGWYRQAPGKQREWVASISVFGSTTYGGSVAGRFTISRDNDKNTVDLQMNSLKPEDTAVYYCHAVNADIGGDYWGQGTQVTVSS
notes: bivalent VHH-Fc
B15 was tested, and the “LVNA IC50” value [2] was 3.1 nM, the IC50 [3] was 9.9 nM and the IC99 [3] was 160 nM. The Imax % [3] was 83%.

B16: NRCoV2-14 VHH (VHH)
VHH: EVQLVSSGGGLVQAGGSLRLSCEASGTTFSHYAVGWYRQAPGKQREWVASISVFGSTTYGGSVAGRFTISRDNDKNTVDLQMNSLKPEDTAVYYCHAVNADIGGDYWGQGTQVTVSS
With B16 the “End 1st inj (RU)” value [1] was 26.9 RU.

B17: NRCoV2-05 VHH-Fc (Fc fusion)
chain: EVKLVQSGGGLVQPGGSLRLSCAASGFIFSNYAMNWVRQAPGKGLEWVSGINSGGGDTRYADSVKGRFTVSRDNAKNTLYLQMNSLKPEDTGVYYCSKGPVSSYYGSGYDYRGQGTQVTVSS
notes: bivalent VHH-Fc
B17 was tested, and the “LVNA IC50” value [2] was 0.0008 nM, the IC50 [3] was 6.7 nM and the IC99 [3] was 37 nM. For the same binder, the Imax % [3] was 95%.

B18: NRCoV2-15 VHH (VHH)
VHH: EVQLVSSGGGLVEAGGSLRLSCIASGSTSGRNTMGWFRQAPGKQREWVAIVSTSGATNYAGSVKGRFTLSRDNAKNAVYLQMNNLKPEDTAVYYCYAAYGGGGDYWGQGTQVTVSS
B18 was tested, and the “End 1st inj (RU)” value [1] was 10.1 RU.

B19: NRCoV2-S2G4 VHH (VHH)
VHH: QVQLVQSGGGLVQAGGSLTLSCAPSGSTFSGYATNWYRQAPGKQRELVATISSDGDKNYADSVKGRFTISRDNAKNTVYLQMNSLKPEDTAVYYCNKHWWTGDWWGQGTQVTVSS
In the case of B19, the “End 1st inj (RU)” value [1] is reported as 21.3 RU.

B20: NRCoV2-SR02 VHH (VHH)
VHH: EVQLVDSGGGLVQAGGSLRLSCTASEFTLNYYSIGWFRQSPGKEREGVSCIRYSGGGIDYADSVKGRFTISRDNAKNTVYLTMNSLKPEDTAVYYCAADRLYSRACPTAGGRNYWGQGTQVTVSS
B20 was tested, and the “End 1st inj (RU)” value [1] was 10.3 RU.

B21: NRCoV2-18 VHH-Fc (Fc fusion)
chain: EVQLVESGGGLVQAGGSLRLSCVASGITISGYNMAWWRQTRGKQTERVAFINSGGSTTYSDSVKGRFTISRDNGKNTAYLQMNSLNAEDTADYFCSLHTSHDYWGQGTQVTVSS
notes: bivalent VHH-Fc
B21 was tested, and the “LVNA IC50” value [2] was 6.4 nM, the IC50 [3] was 12 nM and the IC99 [3] was 680 nM. For the same binder, the Imax % [3] was 90%.

B22: NRCoV2-18 VHH (VHH)
VHH: EVQLVESGGGLVQAGGSLRLSCVASGITISGYNMAWWRQTRGKQTERVAFINSGGSTTYSDSVKGRFTISRDNGKNTAYLQMNSLNAEDTADYFCSLHTSHDYWGQGTQVTVSS
In the case of B22, the “End 1st inj (RU)” value [1] is reported as 12.6 RU.
